Experimental data reported in paper PMC3284512.

T1: MUC1 peptide1 (APDTRPAPG epitope) (UniProt P15941)
T1 chain: APDTRPAPG

T2: MUC1 peptide2 (entire tandem repeat) (UniProt P15941)
T2 chain: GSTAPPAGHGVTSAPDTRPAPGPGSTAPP


How the values were obtained:
[1] = tested on: MA3 (DNA, aptamer) AACCGCCCAAATCCCTAAGAGTCGGACTGCAACCTATGCTATCGTTGATGTCTGTCCAAGCAACACAGACACACTACACACGCACA; test: fluorescence quenching of doxorubicin; conditions: aqueous solution, 1 h; Dox 3 nM as printed; intercalation; quenching complete at aptamer/Dox 0.1
[2] = target: T1, MUC1 peptide1 (APDTRPAPG epitope); test: flow cytometry, bead binding; Hanks buffer (binding buffer), 37 C, 30 min, 200 ul; aptamer DNA heated 95 C 5 min then cooled to 0 C (stated for SELEX pool and Dox loading); pH not stated; conditions: tags: EDC-coupled to carboxylated magnetic beads; label: 5'-FITC
[3] = target: T2, MUC1 peptide2 (entire tandem repeat); test: as above; conditions: tags: EDC-coupled to magnetic beads; label: 5'-FITC

Molecule	binding [1]	Kd [2] [µM]	binding result [3]
COc1cccc2c1C(=O)c1c(O)c3c(c(O)c1C2=O)C[C@@](O)(C(=O)CO)C[C@@H]3O[C@H]1C[C@H](N)[C@H](O)[C@H](C)O1	yes	–	–
MA3 (ssDNA) DNA: AACCGCCCAAATCCCTAAGAGTCGGACTGCAACCTATGCTATCGTTGATGTCTGTCCAAGCAACACAGACACACTACACACGCACA	–	0.0383	binds
